Results on one protein are retold here after publication PMC7137328.

Substrate in this series: O=P(O)(O)O[C@H]1[C@H](OP(=O)(O)O)[C@@H](OP(=O)(O)O)[C@H](OP(=O)(O)O)[C@@H](OP(=O)(O)O)[C@H]1OP(=O)(O)O
Description: purified protein. The note with it: 100 mM Tris-HCl pH 7.5, 50 °C, 10 min, 0.125-4.0 mM sodium phytate, printed kcat does not agree with printed Vmax and Mw.

B1: r-Aophytase (recombinant Aophytase; G1XN29 protein) (Orbilia oligospora ATCC 24927) (protein)
chain: ADKFSITLPITARTSSVESDSAAVYYPSKSKYSPIFIGNDGSAETGGFHVYELYGKRSDALVKELGAYKTGRSKLVEVVYGEDRDFVVTLSMSDGMFRVFEVDGKNGVRGLKAEKLVRGDFSAMCTWKSKVGEYVYVLGKRWGYRFLVREKKGGRGVEVVQTQEFGIPIEPNSCTVSPEGKVFLAGDSGKVFSFLAVDETAAPKIVEVGELGGGDEVKGLKIYHGKKDTYLLVGLEDGIEVFDIKKLGSSLGKIQFDDEELEVGDFAVHQTSAKGYEDGSIVFAGEDGEGKFFGVSSLTPLFKALGKGKLNTKYDPRDCTDNHARPKKCANLSDCNGYGYCPKDSRDKKATCDCFPGLTGKTCNKITCPSNCTSPSHGTCTGPNICTCIPPFTGENCATLAVPARYETEESGGADGDDPAIWIHPTDKTKSRIITTVKSEVGSGLGVYDLKGKRTGGVSGGEPNNVDVLYGVEFAGRKVDLAVAACRADDTICIYEITPTGDLVTIPGGVQPLPPAVKELEKKFKVYGSCVYHSPKTGAYHIFVNSKSSLYLQFQLSATTDGKLNTTLVRHFYAGNRGQVEGCVVDDENSSLFLGEEPYGIWSYDAEPDQPAVGTLVDNTVVDGGKLHADVEGVTLVYGKTKKEGYIIVSCQGYSEYNIYQRYPPHEFVMSFSIPDNKEKGVDRVTNTDGITAVGANLGKEWPYGMVVVHDDVNEAAGGGVRADATFKIVGLGDILGNKAVKELGLLKGVDENWDPRK
As for B1, the Km – broadly, the concentration of substrate that gives half-maximal velocity – is 1015 µM; the kcat – broadly, the number of substrate molecules converted per active site and unit of time at saturation – worked out at 13.57 s⁻¹.
